Legend:
[1] = target: T1, MICB-Fc (R&D Systems 1599-MB) (human, UniProt Q29980 23-298, limits assumed); assay: SPR, antibody at 10 µg/ml injected over immobilized MICB-Fc
T1 construct: Bought; also called human MICB-Fc; not shown: Fc of the bought fusion protein
T1 sequence: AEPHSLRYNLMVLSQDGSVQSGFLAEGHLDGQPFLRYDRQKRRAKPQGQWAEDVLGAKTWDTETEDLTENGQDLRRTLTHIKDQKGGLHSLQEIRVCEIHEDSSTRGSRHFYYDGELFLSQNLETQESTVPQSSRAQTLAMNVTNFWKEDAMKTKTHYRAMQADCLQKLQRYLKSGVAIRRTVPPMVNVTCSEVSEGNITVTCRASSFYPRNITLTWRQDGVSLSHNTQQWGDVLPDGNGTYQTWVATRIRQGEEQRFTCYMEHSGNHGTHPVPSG
Method: For cross-binding study, the human ULBP-1-Fc (R&D systems*), MICB-Fc (*), ULBP-2-Fc (*) and ULBP-3-Fc (*) recombinant proteins were covalently immobilized respectively on the flow cell one to four of a CM5 sensorchip. Anti-MICA antibodies (at a constant concentration of 10 μg/ml) were injected for 2 minutes at a flow rate of 10 μl/min onto the four flow cells in parallel. After each cycle, Sensorchip was regenerated by a five second injection of appropriate regeneration buffer.

[2] = target: T2, MICA*001 expressed at the cell surface (human, UniProt Q29983 24-297); assay: flow cytometry on C1R transfectant cells, 4-parameter logistic fit
T2 construct: the protein on cells also has its transmembrane and cytoplasmic parts (Genbank AAB41060); also called C1R-MICA*001; C1R-MICA*01
T2 sequence: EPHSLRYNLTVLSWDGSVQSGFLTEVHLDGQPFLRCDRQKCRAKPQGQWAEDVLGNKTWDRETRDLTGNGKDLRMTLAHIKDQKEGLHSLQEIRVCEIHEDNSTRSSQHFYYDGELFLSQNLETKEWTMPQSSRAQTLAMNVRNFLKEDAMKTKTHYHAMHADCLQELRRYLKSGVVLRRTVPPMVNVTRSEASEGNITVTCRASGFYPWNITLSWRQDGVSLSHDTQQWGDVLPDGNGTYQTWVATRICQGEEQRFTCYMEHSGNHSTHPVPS
Method: (§1) The binding of antibodies obtained from the first, second and third immunization series (including CHG1-M-MIA-19E9, CHG1-M-MIA-9C10, CHG1-M-MIA-6E4, CHG1-M-MIA-20C6, CHG1-M-MIA-16A8, CHG1-M-MIA-12A10, CHG1-M-MIA-10A7, CHG1-M-MIA-18E8, CHG1-M-MIA-10F3, CHG1-M-MIA-15F9 and CHG1-M-MIA-14B4) were tested for binding to MICA-expressing CR1 transfectant cells C1R-MICA*001, C1R-MICA*004, C1R-MICA*007 and C1R-MICA*008 (Pr. A. Steinle, Eberhard-Karls University Tuebingen, Germany) described in Salih et al. (2003) Blood 102(4): […]. Binding was analyzed by flow cytometry.
(§2) Cells were harvested and stained in PBS 1×/BSA 0.2%/EDTA 2 mM buffer during 30 minutes at 4° C. using a dose-range of the anti-MICA mAbs. After two washes in staining buffer, cells were stained for 30 min at 4° C. with mouse anti-human IgG1-PE monoclonal antibodies (1/11). After two washes, stainings were acquired on a BD FACS Canto II and analyzed using the FlowJo software.
(§3) Antibodies CHG1-M-MIA-19E9, CHG1-M-MIA-9C10, CHG1-M-MIA-6E4, CHG1-M-MIA-20C6, CHG1-M-MIA-12A10, CHG1-M-MIA-10A7, CHG1-M-MIA-18E8, CHG1-M-MIA-10F3, and CHG1-M-MIA-15F9 bound to each of the C1R-MICA*001, C1R-MICA*004, C1R-MICA*007 and C1R-MICA*008 cells (see FIG. 1A for antibodies CHG1-M-MIA-19E9, CHG1-M-MIA-9C10, CHG1-M-MIA-6E4, CHG1-M-MIA-20C6, CHG1-M-MIA-12A10, CHG1-M-MIA-10F3, and FIG. 1B for antibodies, CHG1-M-MIA-18E8, CHG1-M-MIA-15F9, CHG1-M-MIA-10A7). […] EC50 values are shown in Table C in μg/ml (calculated using a 4-parameter logistic fit).

[3] = target: T3, MICA*004 expressed at the cell surface (human, UniProt Q29983 24-297); assay: as above
T3 construct: also called C1R-MICA*004; C1R-MICA*04
T3 chain: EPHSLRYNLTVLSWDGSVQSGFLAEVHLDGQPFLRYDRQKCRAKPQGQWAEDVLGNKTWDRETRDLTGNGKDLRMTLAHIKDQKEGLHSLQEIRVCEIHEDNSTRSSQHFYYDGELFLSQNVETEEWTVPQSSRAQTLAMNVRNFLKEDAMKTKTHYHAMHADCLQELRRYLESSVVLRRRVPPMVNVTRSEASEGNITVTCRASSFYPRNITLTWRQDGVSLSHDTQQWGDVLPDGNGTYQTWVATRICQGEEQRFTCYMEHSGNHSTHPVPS
Method: as §1, §2, §3

[4] = target: T4, MICA*007 expressed at the cell surface (human, UniProt Q29983 24-297); assay: as above
T4 construct: also called C1R-MICA*007; C1R-MICA*07
T4 chain: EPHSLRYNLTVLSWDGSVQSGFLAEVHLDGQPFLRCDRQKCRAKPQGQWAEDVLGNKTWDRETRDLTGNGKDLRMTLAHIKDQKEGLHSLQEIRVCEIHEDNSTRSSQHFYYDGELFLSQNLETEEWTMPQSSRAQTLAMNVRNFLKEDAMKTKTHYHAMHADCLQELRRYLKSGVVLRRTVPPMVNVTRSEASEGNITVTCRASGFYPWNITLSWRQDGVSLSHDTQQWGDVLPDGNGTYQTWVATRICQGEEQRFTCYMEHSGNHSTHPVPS
Method: as §1, §2, §3

[5] = target: T5, MICA*008 expressed at the cell surface (human, UniProt Q29983 24-297); assay: as above
T5 construct: also called C1R-MICA*008; C1R-MICA*08
T5 chain: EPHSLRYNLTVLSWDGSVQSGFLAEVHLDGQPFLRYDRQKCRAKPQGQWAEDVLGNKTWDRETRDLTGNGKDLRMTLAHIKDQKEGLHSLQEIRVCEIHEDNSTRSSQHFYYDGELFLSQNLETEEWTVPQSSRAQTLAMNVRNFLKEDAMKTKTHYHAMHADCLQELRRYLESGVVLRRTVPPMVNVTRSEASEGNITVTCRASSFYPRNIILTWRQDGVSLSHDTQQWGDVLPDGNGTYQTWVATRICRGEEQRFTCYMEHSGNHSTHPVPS
Method: as §1, §2, §3

MICA*001-BirA = target: T6, MICA*001-BirA (human, UniProt Q29983 24-297); assay: SPR single cycle kinetics, monovalent mean KD at pH 7.4, antibody captured on Protein-G chip, MICA-BirA injected
T6 construct: also called MICA-BirA; MICA*01-BirA; not shown: BirA tag
T6 sequence: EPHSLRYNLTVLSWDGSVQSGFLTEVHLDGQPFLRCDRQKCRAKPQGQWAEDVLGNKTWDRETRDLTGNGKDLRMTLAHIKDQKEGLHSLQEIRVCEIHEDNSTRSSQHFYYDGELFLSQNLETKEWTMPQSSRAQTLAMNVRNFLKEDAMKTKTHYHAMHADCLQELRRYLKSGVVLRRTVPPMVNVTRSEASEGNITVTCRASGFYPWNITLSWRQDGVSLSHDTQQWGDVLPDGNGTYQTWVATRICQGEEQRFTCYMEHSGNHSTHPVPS
Method: For monovalent affinity measurement, chimeric anti-MICA antibodies were captured onto a Protein-G chip.
Affinities were determined using single cycle kinetics (SCK). SCK cycles were as follows: Successive 120s injections at 30 μl/min of 5 serial dilutions (0.01 to 100 nM) of MICA-His or MICA-BirA in ascending order (or of buffer for the blank injections to be subtracted during the analysis). After the last concentration is injected, complex is left to dissociate for 600s before regeneration by a 10s injection of appropriate regeneration buffer at 40 μl/min. After the regeneration, chip is left to stabilise for 60s in running buffer. Curves are fitted using Biacore T100 Evaluation software.

B1: CHG1-M-MIA-10F3 (antibody, human IgG1, V domains shown)
VH: QVQLQQSAAELARPGASVKMSCKASGYTFTSYTMHWVKQRPGQGLEWIGYINPSSGYTEYNQKFKDKTTLTVDKSSTTSYMQLSSLTSDNSAVYYCARGGDWDVDWFVYWGQGTLVTVSA
VL: QIVLTQSPAIMSASPGEKVTITCSASSSISYMHWFQQKPGTSPKLWIYSTSKLASGVPARFSGSGSGTSHSLTISRMEAEDAATYYCQHRSTYPFTFGSGTKLEIK
notes: the VH entry ends with ASTK
- binding result [1]: binds
- EC50 [2]: 0.47 µg/mL
- EC50 [3]: 0.17 µg/mL
- EC50 [4]: 0.94 µg/mL
- EC50 [5]: 0.26 µg/mL
- Kd (MICA*001-BirA): 8.3 nM

B2: CHG1-M-MIA-18E8 (antibody, human IgG1, V domains shown)
VH: DVQLQESGPDLVNPSQSLSLICTVTGYSITSDYSWHWIRQFPGNKLEWMGNIHYSGRINYNPSLRSRISITRDTSKNQFFLQLISVTTEDTATYYCATRRTFGNFEDYWGQGTTLTVSS
VL: QIVLSQSPATLSVSPGEKVTMTCRSSSSVNYMHWYQQKPGSSPKPWIYATSTLASGVPARFSGSGSGTSYSLTISRVEAEDAATYYCQQWSSNPLTFGAGTKLELK
notes: the VH entry ends with ASTK
- binding result [1]: binds
- EC50 [2]: 0.5 µg/mL
- EC50 [3]: 0.15 µg/mL
- EC50 [4]: 0.3 µg/mL
- EC50 [5]: 0.24 µg/mL
- Kd (MICA*001-BirA): 54 nM
